Patent KR20140095558A (dated 2014)

B1: SC06-415 (scFv)
scFv: EVQLVESGGGLVQPGRSLRLSCAASGFTFDDYAMHWVRQAPGKGLEWVSGISWNSGSIGYADSVKGRFTISRDNAKNSLYLQMNSLRAEDSAVYYCARGGQRFDFWGQGTLVTVSSGTGGSGGTGSGTGGSTQSALTQPPSASGSPGQSVTISCTGTSSDVGGYNYVSWYQQLPGKAPKLLIYDVNNRPSGVSNRFSGSKSGNTASLTISGLQAEDEAEYYCGSSVGSRLRIFGGGTKLTVL
B2: SC05-187 (scFv)
scFv: EVQLVQSGAEVKKPGESLKISCKGSGYSFTKYWIGWVRQMPGKGLEWMGIIYPGDSDTRYSPSFQGQVTISADKSISTAYLQWSSLKASDTAMYYCARGSGIATGNSFDSWGQGTLVTVSSGTGGSGGTGSGTGGSTQTVVTQEPSLTVSPGGTVTLTCASSTGAVTSGYYPNWFQQKPGQAPRALIYSTSKKHSWTPARFSGSLLGGRAALTLSGAQPEDEADYYCLLSYGGARVFGGGTKLTVL
B3: SC06-043 (scFv)
scFv: EVQLVESGAEVKKPGESLKISCKGSGYSFTSYWIGWVRQMPGKGLEWMGIIYPGDSDTRYSPSFQGQVTISADKSISTAYLQWSSLKASDTAMYYCARRYCSGGTCSDGFDIWGQGTMVTVSSGTGGSGGTGSGTGGSTQSALTQPPSASGSPGQSVTISCTGTSSDVGGYNYVSWYQQHPGKAPKLMIYEVSKRPSGVPDRFSGSKSGNTASLTVSGLQAEDEADYYCSSYAGSNNLVFGGGTKLTVL
B4: SC06-432 (scFv)
scFv: QLQLQESGPGLVKPSQTLSLTCTVSGGSISSGGYYWSWIRQHPGKGLEWIGYIYYSGSTYYNPSLKSRVTISVDTSKNQFSLKLSSVTAADTAVYYCARERILDRMNDYWGQGTLVTVSSGTGGSGGTGSGTGGSTQSVVTQPPSVSGAPGQRVTISCTGSSSNIGAGYDVHWYQQLPGTAPKLLIYGNSNRPSGVPDRFSGSKSGTSASLAITGLQAEDEADYYCQSSDSSLNILFGGGTKLTVL
B5: SC05-179 (scFv)
scFv: EVQLVESGGGLVKPGGSLGLSCAASGFFFSDYSMSWIRQAPGKGLEWLSNISGSGHSTKYAESMRGRITISRDNAKKSLSLQLNSLRAEDTAVYFCVRGGGYRMDVWGQGTTVTVSSGTGGSGGTGSGTGGSTQSALTQPRSVPGSPGQSVTISCTGTSSDVGGYNYVSWYQQHPGKAPKLMIYDVSKRPSGVPDRFSGSKSGNTASLTVSGLQAEDEADYYCSSYAGSNNFVVFGGGTKLTVL
B6: SC06-049 (scFv)
scFv: QVQLVQSGAEVKKPGESLKISCKGSGYSFTSYWIGWVRQMPGKGLEWMGIIYPGDSDTRYSPSFQGQVTISADKSIGTAYLQWSSLKASDTAMYYCARLFRVRGGHFDSWGQGTLVTVSSGTGGSGGTGSGTGGSTQSALTQPASVSGSPGQSITISCTGTNSDVGGYNYVSWYQQHPGKAPKLLIYDVTNRPSGVSNRFSASKSGNTASLTISGLQAEDEADYYCSSFTSSSTRVFGGGTKLTVL
B7: SC06-389 (scFv)
scFv: QVQLVQSGAEVKKPGESLKISCKGSGYSFSTYWIGWVRQMPGKGLEWMGIIYPGDSDTRYSPSFQGQVTISADKSISTAHLQWSSLKASDTAMYYCARPGPRGYNHGFDYWGQGTLVTVSSGTGGSGGTGSGTGGSTSSELTQDPAESVALGQTVKITCQGDSLRRYYASWYQQKPGQAPVLVIYGKNNRPSGIPDRFSGSRSGNTASLTITGAQAEDEAVYYCNSRDSSGNSVVFGGGTKLTVL
B8: SC06-429 (scFv)
scFv: QVQLVQSGAEVKNPGESLKISCKGSGYTFTSYWIGWVRQMPGKGLEWMGSIYPGDSDTRYSPSFQGQVTISVDKSISTAYLQWSSLKASDTAMYYCARQYRAGSTTRFDPWGQGTLVTVSSGTGGSGGTGSGTGGSTDVVMTQSPLSLPVTPGEPASISCRSSQSLRHRNGNNYLDWYLQKPGQSPQLLIYLGSNRASGVPDRFSGSGSGTDFTLKISRVEAEDVGIYYCMQALQTPLTFGGGTKVEIK
B9: SC06-402 (scFv)
scFv: QVQLVQSGAEVKKPGESLKISCKGSGYSFTSYWIGWVRQMPGKGLEWMGIIYPGDSDTRYSPSFQGQVTISADKSISTAYLQWSSLKASDTAMYYCARWGGVCSSTSCPNRDAFDIWGQGTMVTVSSGTGGSGGTGSGTGGSTQSALTQPRSVSGSPGQSVTISCTGTSSDVGGYNYVSWYQQHPGKAPKLMIYDVSNRPSGVSNRFSGSKSGNTASLTISGLQAEDEAEFHCSSYRSSGASPVVFGGGTKLTVL
B10: SC06-016 (scFv)
scFv: QVQLVQSGPEVKKPGASVTVSCKASGYSFSSYGISWVRQAPGQGLEWMGRIIPVGGNTLYSQMFQGRVTMTSDTSTSTVYLELSSLRSEDTAVYFCARDGGRWQFDYWGQGTLVTVSSGTGGSGGTGSGTGGSTDIQLTQSPSSVSASVGDRVTITCRASQGISNWLAWYQQKPGKAPELLIYAASSLQSGVPPRFSGSASGTDFTLTISSLQPEDFATYYCQQSKNFPYTFGQGTKVEIK
B11: SC06-409 (scFv)
scFv: EVQLVQSGAEVKKPGESLKISCKGSGYSFTNYWIGWVRQMPGKGLEWMGIIYPGDSDTRYSPSFQGQVTISADKSISTAYLQWSSLKASDTAMYYCARHTQNKNGMNTFDIWGQGTMVTVSSGTGGSGGTGSGTGGSTQSALTQPPSASGSPGQSVTISCTGTSSDIGGYNYVSWYQQHPGKAPKLMIYEVSNRPPGVSNRFSGSKSGNTASLTISGLQAEDEADYYCSSYSTTTTRVIFGGGTKLTVL
B12: SC06-050 (scFv)
scFv: EVQLVESGPEVKKPGASVKVSCEASGYNLDNYGITWVRQAPGQGLEWLGWISAYNAKTEYGQRLQGRVTMTTDTATSTAYLELRSLRSDDTAVYYCARVLGYRGGWYDEGDAFDVWGQGTMVTVSSGTGGSGGTGSGTGGSTDIQLTQSPSFLSASVGDRVTITCRASQGIRSHLAWYQQKAGKAPKLLIYAASTLQSGVPSRFSGSGSGTEFTLTISSLQPDDFAAYYCQQLNTYPITFGQGTRLEIK
notes: also called SC05-050

target: T1, BSA (bovine serum albumin) (bovine (송아지 혈청 알부민), UniProt P02769 25-607); test: phage ELISA, 1% BSA coated, anti-M13 peroxidase, OD 492 nm
T1 construct: Negative control antigen of the phage ELISA; also called 송아지 혈청 알부민
T1 sequence (P02769 25-607 limits assumed): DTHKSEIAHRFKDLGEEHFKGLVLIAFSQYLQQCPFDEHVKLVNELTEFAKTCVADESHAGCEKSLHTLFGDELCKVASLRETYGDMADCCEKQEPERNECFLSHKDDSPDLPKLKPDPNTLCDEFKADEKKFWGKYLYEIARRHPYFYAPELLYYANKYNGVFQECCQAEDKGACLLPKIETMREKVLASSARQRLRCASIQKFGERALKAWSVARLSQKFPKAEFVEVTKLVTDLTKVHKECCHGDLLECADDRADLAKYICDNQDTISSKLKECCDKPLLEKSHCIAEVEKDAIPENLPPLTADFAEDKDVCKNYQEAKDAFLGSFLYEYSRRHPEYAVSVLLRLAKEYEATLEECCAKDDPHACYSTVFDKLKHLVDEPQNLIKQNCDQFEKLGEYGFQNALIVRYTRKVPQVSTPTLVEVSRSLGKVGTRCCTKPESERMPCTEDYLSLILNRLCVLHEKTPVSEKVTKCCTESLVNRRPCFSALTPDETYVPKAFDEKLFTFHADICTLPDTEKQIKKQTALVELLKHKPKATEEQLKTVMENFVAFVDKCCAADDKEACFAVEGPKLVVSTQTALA

Binder | binding result
B1 | no binding
B2 | no binding
B3 | no binding
B4 | no binding
B5 | no binding
B6 | no binding
B7 | no binding
B8 | no binding
B9 | no binding
B10 | no binding
B11 | no binding
B12 | no binding
